Experimental data as given in US20100129369A1 (Eli Lilly, published 2010).

How the values were obtained:
[1] = target: T1, Rat c-Met-Flis-Fc ECD (rat); assay: SPR (Biacore), antibody captured
T1 construct: also called Rat cMet-ECD-Fc-Flis; rat c-Met ECD
Method: A Biacore® 2000 instrument is used to measure the binding kinetics of c-Met antibodies to human, cynomolgus monkey, and rat c-Met ECDs. Measurements are performed at 25° C. Samples are dissolved in HBS-EP buffer (150 mM sodium chloride, 3 mM EDTA, 0.005% (w/v) surfactant P-20, and 10 mM N-2-hydroxyethylpiperazine-N′-2-ethanesulfonic acid (HEPES) at pH 7.4; #BR-1001-88).
Binding is evaluated using multiple cycles. Each cycle is performed at a flow rate of 50 μL/min., and consists of the following steps: injection of about 10 μL of a c-Met antibody at 10 μg/mL aiming at a capture of 40-100 RUs, injection of 250 μL of human, cynomolgus, or rat c-Met-Flis-Fc ECD (starting at 100 nM and using two-fold serial dilutions for each cycle) followed by 20 min. for dissociation, and regeneration using about 30 μL of 10 mM glycine hydrochloride, pH 1.5. Association and dissociation rates for each cycle are evaluated using a “1:1 (Langmuir) binding” model in the BIAevaluation software, version 4.1.

[2] = target: T2, mouse c-Met ECD (mouse, UniProt P16056 25-931); assay: ELISA, coated ECD (data not shown)
T2 construct: extracellular domain

[3] = target: T3, Human c-Met-Flis-Fc ECD (human); assay: ELISA, coated ECD-Fc, antibody 462.963 ng/mL
T3 construct: also called human c-Met extracellular domain (ECD)-Fc-Flis fusion; Human cMet-ECD-Fc-Flis
Method: (§1) Wells of 96-well EIA/RIA high binding plates (Costar, #2592) are coated with 100 μL of 1 μg/mL human c-Met extracellular domain (ECD)-Fc-Flis fusion (SEQ ID NO:72), RON-ECD-Fc (R&D Systems, #1947-MS), or PlexinA2-ECD-Fc (Abnova, Taipei, Taiwan #H00005362-P01) in coating buffer (BioFX Labs, # COAT-1000-01) overnight at 4° C. […] After the plates are washed, 100 μL/well of substrate solution (BioFx, #TMBW-1000-01) are added and the plates are incubated for 10 min. at room temperature. 100 μL/well of stop solution (BioFx, # LSTP-1000-01) are added to stop the reaction. The colorimetric signals are developed and read at 450 nm using a SpectraMax 190 plate reader (Molecular Devices, Sunnyvale, Calif.). c-Met antibody binding to c-Met, RON and PlexinA2 ECDs is proportional to color signal production.

[4] = target: T4, RON-ECD-Fc (human, UniProt Q04912 25-957); assay: ELISA, coated ECD-Fc, antibody 462.963 ng/mL
T4 construct: extracellular domain; Bought reagent; not shown: Fc part of the bought fusion
T4 sequence (looked up): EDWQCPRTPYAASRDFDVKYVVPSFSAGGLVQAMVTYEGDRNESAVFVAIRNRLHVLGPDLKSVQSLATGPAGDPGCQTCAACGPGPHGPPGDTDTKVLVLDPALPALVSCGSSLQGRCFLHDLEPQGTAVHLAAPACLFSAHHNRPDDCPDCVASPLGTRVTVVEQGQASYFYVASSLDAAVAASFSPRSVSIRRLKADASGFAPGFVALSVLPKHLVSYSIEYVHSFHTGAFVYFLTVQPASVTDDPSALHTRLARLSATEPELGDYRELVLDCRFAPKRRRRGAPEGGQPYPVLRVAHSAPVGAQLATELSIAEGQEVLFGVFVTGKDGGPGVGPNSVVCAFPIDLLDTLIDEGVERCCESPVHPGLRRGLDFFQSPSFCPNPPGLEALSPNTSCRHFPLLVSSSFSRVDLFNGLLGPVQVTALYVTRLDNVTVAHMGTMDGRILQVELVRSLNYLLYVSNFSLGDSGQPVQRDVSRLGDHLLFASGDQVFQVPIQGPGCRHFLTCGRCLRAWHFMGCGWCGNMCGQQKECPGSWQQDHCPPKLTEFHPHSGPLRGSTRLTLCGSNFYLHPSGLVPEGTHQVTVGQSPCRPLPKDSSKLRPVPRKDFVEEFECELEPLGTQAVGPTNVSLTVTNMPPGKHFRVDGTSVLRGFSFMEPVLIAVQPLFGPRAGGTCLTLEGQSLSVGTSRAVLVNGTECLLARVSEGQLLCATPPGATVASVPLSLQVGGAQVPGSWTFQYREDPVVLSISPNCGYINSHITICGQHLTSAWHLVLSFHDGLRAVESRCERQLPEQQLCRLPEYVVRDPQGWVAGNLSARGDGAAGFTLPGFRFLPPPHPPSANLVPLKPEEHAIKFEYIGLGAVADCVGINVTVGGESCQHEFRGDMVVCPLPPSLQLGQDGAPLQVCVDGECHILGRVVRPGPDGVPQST
Method: as §1

[5] = target: T3, Human c-Met-Flis-Fc ECD; assay: ELISA, coated ECD-Fc, antibody 0.010 ng/mL
[6] = target: T4, RON-ECD-Fc; assay: ELISA, coated ECD-Fc, antibody 0.010 ng/mL

T3 sequence (chain, as listed by the source limits assumed): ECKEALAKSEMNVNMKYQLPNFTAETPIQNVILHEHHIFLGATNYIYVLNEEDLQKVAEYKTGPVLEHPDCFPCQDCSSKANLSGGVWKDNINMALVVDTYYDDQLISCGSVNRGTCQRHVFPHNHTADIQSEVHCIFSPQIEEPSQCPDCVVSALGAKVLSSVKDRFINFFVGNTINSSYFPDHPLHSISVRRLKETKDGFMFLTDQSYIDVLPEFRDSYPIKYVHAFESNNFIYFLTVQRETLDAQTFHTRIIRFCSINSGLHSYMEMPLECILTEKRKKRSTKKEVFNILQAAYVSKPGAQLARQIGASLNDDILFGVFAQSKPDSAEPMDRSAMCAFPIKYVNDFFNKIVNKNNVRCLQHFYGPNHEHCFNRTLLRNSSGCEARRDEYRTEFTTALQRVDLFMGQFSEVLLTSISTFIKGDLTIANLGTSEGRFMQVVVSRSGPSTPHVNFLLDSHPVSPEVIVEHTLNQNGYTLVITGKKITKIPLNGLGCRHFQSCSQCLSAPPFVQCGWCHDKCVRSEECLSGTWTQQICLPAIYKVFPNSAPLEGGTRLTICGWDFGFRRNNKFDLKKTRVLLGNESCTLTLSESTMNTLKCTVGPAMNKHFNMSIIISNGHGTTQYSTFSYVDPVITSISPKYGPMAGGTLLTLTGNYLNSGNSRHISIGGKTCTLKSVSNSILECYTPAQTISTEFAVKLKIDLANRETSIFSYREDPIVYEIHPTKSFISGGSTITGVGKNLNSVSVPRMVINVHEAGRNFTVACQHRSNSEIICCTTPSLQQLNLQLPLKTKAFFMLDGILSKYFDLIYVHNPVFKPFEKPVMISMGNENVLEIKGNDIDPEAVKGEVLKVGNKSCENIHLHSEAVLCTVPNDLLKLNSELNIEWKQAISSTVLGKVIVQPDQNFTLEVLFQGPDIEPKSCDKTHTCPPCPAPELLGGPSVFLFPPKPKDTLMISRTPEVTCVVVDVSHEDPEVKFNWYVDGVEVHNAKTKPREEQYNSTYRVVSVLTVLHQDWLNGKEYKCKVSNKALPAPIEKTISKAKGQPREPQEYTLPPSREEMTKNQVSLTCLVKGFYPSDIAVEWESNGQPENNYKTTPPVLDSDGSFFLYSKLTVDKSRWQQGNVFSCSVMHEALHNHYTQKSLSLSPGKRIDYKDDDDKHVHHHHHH
T1 sequence (chain, as listed by the source limits assumed): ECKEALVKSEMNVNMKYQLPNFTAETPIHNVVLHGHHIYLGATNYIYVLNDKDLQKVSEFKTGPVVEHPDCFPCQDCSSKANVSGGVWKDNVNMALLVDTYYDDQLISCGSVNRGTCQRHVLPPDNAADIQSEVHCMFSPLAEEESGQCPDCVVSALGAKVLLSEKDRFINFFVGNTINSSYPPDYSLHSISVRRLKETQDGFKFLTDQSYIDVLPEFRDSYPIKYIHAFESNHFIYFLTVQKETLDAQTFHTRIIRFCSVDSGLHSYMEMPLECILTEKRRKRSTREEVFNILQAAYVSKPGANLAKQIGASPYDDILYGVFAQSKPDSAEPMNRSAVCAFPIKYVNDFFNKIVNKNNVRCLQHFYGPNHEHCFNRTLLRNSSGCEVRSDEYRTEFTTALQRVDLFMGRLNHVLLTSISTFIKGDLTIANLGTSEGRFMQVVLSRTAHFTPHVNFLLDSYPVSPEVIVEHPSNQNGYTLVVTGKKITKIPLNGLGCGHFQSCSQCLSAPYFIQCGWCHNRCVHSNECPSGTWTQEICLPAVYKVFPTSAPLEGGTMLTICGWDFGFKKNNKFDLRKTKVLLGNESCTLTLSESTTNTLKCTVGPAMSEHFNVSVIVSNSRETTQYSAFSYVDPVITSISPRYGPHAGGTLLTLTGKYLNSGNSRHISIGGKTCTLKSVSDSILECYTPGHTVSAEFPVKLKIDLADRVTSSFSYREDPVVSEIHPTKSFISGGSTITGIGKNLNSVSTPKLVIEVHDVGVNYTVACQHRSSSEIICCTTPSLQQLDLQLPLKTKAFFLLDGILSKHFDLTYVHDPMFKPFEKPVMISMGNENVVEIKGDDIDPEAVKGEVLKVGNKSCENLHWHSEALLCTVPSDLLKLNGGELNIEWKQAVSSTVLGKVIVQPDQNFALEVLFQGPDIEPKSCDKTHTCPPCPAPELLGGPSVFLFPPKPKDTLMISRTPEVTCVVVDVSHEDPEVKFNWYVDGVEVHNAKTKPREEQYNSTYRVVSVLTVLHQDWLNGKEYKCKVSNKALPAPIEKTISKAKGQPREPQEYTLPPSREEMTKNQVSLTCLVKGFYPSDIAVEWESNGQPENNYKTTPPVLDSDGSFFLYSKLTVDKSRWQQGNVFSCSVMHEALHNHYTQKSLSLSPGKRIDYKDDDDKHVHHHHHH
T2 sequence (P16056 25-931): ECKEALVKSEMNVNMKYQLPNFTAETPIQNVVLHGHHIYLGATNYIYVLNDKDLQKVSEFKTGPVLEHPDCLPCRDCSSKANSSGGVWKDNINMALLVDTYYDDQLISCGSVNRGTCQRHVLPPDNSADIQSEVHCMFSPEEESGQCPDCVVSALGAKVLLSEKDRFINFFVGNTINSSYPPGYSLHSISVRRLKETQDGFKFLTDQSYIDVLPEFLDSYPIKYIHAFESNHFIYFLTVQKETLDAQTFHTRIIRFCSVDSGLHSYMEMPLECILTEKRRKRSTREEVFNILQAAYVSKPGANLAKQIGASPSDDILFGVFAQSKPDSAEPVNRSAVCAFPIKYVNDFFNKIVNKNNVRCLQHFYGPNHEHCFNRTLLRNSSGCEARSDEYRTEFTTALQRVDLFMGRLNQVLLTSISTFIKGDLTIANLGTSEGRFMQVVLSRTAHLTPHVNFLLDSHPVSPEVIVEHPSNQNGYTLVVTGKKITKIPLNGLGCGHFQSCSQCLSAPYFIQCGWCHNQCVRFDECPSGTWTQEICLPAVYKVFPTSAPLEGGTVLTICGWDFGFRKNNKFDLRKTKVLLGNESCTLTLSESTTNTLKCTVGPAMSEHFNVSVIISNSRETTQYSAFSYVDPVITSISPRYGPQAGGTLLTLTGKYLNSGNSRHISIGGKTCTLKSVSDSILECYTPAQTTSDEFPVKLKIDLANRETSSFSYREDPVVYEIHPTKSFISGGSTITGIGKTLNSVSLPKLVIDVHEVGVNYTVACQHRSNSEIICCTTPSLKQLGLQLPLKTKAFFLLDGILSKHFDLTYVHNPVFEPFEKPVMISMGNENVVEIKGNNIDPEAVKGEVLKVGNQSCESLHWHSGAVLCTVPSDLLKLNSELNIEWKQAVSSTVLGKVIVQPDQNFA

- binding result [1]: no binding
- binding result [2]: no binding (tested: 100 nM)
- Average A450 nm [3]: 4 A450 nm
- Average A450 nm [4]: 0.088 A450 nm
- Average A450 nm [5]: 0.335 A450 nm
- Average A450 nm [6]: 0.097 A450 nm
B1: C8-6 (antibody, human IgG2, kappa, V domains shown)
VH: QVQLVQSGAEVKKPGASVKVSCKASGYTFTDYYMHWVRQAPGQGLEWMGRVNPNRGGTTYNQKFEGRVTMTTDTSTSTAYMELRSLRSDDTAVYYCARTNWLDYWGQGTTVTVSS
VL: DIQMTQSPSSLSASVGDRVTITCSVSSSVSSIYLHWYQQKPGKAPKLLIYSTSNLASGVPSRFSGSGSGTDFTLTISSLQPEDFATYYCIQYSGYPLTFGGGTKVEIKR
notes: Called IgG4, kappa; also called Mab C8-6
